Common to all, as to experiment: thioflavin T fluorescence
Experiment [1] deals with MSP2_(1–25), recombinant 25-residue peptide corresponding to the entire conserved N-terminal domain of mature MSP2 (Plasmodium falciparum).
The target of experiment [2] is [F11A,I12A]MSP2_(1–25) (Plasmodium falciparum).
The target of experiment [3] is [Y7A,Y16A]MSP2_(1–25) (Plasmodium falciparum).

With “MSP2_(1–25), recombinant 25-residue peptide corresponding to the entire conserved N-terminal domain of mature MSP2”, in experiment [1], the lag time of fibril formation came to 1 h and the time to maximum ThT fluorescence (fibril formation) was 2 h.

In experiment [2], [F11A,I12A]MSP2_(1–25) (peptide) returned a lag time of fibril formation of 3.5 h and a time to maximum ThT fluorescence (fibril formation) of 9 h.

[Y7A,Y16A]MSP2_(1–25) (peptide): in experiment [3], the lag time of fibril formation was 1 h and the time to maximum ThT fluorescence (fibril formation) was 2 h.

The values are drawn from paper PMC2948610.
